The target of assay [1] is T1, human follicle stimulating hormone receptor (human, UniProt P23945 18-695).
T1 construct: whole, on cells; also called human FSHR; human FSH receptor
T1 sequence (looked up): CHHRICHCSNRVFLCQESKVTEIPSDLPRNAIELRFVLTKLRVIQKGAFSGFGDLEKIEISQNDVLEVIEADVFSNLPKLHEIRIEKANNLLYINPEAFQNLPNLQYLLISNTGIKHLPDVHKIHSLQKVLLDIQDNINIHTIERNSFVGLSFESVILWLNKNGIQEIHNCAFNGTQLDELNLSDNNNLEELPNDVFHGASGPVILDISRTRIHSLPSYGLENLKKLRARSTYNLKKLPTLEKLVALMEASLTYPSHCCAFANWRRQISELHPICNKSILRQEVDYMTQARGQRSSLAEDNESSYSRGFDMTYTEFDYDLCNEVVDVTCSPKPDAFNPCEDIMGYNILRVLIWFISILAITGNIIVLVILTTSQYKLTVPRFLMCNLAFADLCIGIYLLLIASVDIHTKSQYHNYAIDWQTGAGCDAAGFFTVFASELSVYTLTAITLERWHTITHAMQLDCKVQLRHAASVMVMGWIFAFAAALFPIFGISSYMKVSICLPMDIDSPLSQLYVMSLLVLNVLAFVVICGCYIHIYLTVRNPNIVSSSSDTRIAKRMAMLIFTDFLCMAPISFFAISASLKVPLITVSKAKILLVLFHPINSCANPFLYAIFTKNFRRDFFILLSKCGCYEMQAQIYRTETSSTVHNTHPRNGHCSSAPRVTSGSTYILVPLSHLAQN
The experiment in a line: flow cytometry on human FSHR stable HEK293 cells, detection with goat anti-human IgG Fd-FITC. The procedure: By using a human FSHR stable cell line (HEK293, Creative Biogene, USA) expressing human FSH receptors on the surface, the binding between the SAFA-FSH protein and the FSH receptors was analyzed with a CytoFLEX flow cytometer (Beckman Coulter, USA).
Subsequently, the binding between the SAFA-FSH protein and the human FSHR was confirmed by using the human FSHR stable cell line in which the expression of human FSHR was confirmed. Specifically, the human FSHR stable cells were dissolved in MACS buffer (PBS containing 0.5% BSA and 2 mM EDTA) at a concentration of 1×10⁶ cells/ml, and then added in an amount of 100 μl (1.0×10⁵ cells/test) to a 1.7 ml tube. The cells were then centrifuged at 500×g at 4° C. for 5 minutes. After removing the supernatant from the 1.7 ml tube, 100 μl each of the SAFA-FSH protein and the SL335 fragment that were diluted with MACS buffer at a concentration from 1,000 nM to 0.064 nM was added to the same tube to proceed a reaction at 4° C. for 30 minutes. After 500 μl of MACS buffer was added to the tube and the cells were centrifuged at 500×g at 4° C. for 5 minutes, the supernatant was removed therefrom to remove unbound proteins. 100 μl of goat anti-human IgG Fd-FITC (Southern Biotech, USA) antibody diluted with MACS buffer at a ratio of 1:500 was added to the tube to proceed a reaction at 4° C. for 30 minutes. […]

Assay [2] concerns the target T2, human serum albumin (human, UniProt P02768 25-609).
T2 construct: Immobilised on an AR2G biosensor; also called HSA; human serum albumin (Sigma)
Briefly: BLI (Octet Red), HSA immobilised on AR2G sensor, pH 6.0. On the procedure: (§1) By using Bio-Layer Interferometry (BLI) and Octet® BLI systems (Octet® Red, Sartorius, Germany), the binding ability of the SAFA-FSH protein to human serum albumin was analyzed. On an AR2G biosensor chip (Sartorius, Germany), human serum albumin (Sigma) was immobilized at a concentration of 30 μg/mL with a 10 mM acetate buffer pH 5.0, and the SAFA-FSH protein was added thereto at concentrations of 6.25 nM, 3.125 nM, 1.56 nM, and 0.78 nM (association: 600 s, dissociation: 900 s), so as to confirm the binding ability between the two under conditions of pH 7.4 or pH 6.0 conditions.
(In general: BLI is a label-free optical method that tracks binding on a fibre tip over time.)

Assay [3] deals with T2, human serum albumin. Briefly: BLI (Octet Red), HSA immobilised on AR2G sensor, pH 7.4. The procedure:
as §1

T2 sequence (P02768 25-609 limits assumed): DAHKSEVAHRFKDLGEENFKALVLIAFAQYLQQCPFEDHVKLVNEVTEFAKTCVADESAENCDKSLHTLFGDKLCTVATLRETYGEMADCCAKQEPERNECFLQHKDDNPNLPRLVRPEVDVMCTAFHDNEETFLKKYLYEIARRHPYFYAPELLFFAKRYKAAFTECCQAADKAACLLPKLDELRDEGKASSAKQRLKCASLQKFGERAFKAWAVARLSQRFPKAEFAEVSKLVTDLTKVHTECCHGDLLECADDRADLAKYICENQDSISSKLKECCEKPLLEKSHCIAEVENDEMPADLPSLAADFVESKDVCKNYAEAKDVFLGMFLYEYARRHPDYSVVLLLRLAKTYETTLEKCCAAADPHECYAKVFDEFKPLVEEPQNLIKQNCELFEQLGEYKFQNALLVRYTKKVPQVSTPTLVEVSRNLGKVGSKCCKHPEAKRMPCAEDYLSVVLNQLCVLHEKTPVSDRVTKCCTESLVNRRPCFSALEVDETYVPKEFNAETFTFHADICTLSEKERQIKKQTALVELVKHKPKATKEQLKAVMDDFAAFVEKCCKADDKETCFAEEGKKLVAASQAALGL

B1: SL335 fragment (Fab, V domains shown)
VH: QVQLVQSGGGPVKPGGSLRLSCAASGFMFRAYSMNWVRQAPGKGLEWVSSISSSGRYIHYADSVKGRFTISRDNAKNSLYLQMNSLRAEDTAVYYCARETVMAGKALDYWGQGTLVTVSS
VL: DIVLTQSPGTLSLSPGETATLSCRASQSVGSNLAWYQQKPGQAPRLLIYGASTGATGVPARFSGSRSGTDFTLTITSLQPEDFATYYCQQYYSFLAKTFGQGTQLEIKR
notes: Fab without FSH, used as the control in the FSHR flow cytometry assay; also called human anti-serum albumin Fab antibody fragment
Consider B1, for which the binding result in assay [1] is recorded as “no binding (tested: 1000 nM)”.

B2: SAFA-FSH-B protein (other)
heavy: QVQLVQSGGGPVKPGGSLRLSCAASGFMFRAYSMNWVRQAPGKGLEWVSSISSSGRYIHYADSVKGRFTISRDNAKNSLYLQMNSLRAEDTAVYYCARETVMAGKALDYWGQGTLVTVSSASTKGPSVFPLAPSSKSTSEGTAALGCLVKDYFPEPVTVSWNSGALTSGVHTFPAVLQSSGLYSLSSVVTVPSSSLGTQTYICNVNHKPSNTKVDKKVEPKSSGGGGSGGGGSGGGGSNSCELTNITIAIEKEECRFCISINTTWCAGYCYTRDLVYKDPARPKIQKTCTFKELVYETVRVPGCAHHADSLYTYPVATQCHCGKCDSDSTDCTVRGLGPSYCSFGEMKE
light: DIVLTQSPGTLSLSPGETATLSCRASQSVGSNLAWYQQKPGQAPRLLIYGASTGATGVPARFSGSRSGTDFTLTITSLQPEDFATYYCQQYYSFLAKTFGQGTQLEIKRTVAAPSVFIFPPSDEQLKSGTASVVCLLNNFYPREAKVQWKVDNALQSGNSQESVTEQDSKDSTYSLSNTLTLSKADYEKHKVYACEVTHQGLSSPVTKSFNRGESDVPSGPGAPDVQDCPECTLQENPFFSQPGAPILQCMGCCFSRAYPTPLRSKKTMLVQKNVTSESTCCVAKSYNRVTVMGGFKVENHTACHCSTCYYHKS
notes: Anti-serum-albumin Fab SL335 with hFSH beta on the C-terminus of CH1 and hFSH alpha on the C-terminus of CL; also called SAFA-FSH protein; recombinant fusion protein
One may read the Kd as the free concentration of one partner at which half of the binding sites on the other are occupied at equilibrium, for simple one-to-one binding. A high value points to a looser complex. For orientation: koff means a measure of how fast the partners let go of each other. High values mean a short-lived complex, low ones a long-lived complex. One may read the kon as a measure of how fast the partners come together. Turning to B2, in assay [2], the Kd is 313 pM, the koff was found to be 0.000149 s⁻¹ and the kon was found to be 475000 M⁻¹ s⁻¹. In assay [3], binding was put at a Kd of 359 pM, the koff came out at 0.000136 s⁻¹ and the kon is 379000 M⁻¹ s⁻¹.

(Values after patent US20260125443A1 (APRILBIO, published 2026).)
